Values quoted from earlier work, collected in PMC6474356.
Where two headings read alike, the source gives them in different places.

What was measured:
[1] = target: calmodulin (Homo sapiens) (UniProt P0DP23)
[2] = target: calmodulin (Homo sapiens) (UniProt P0DP23); remark: listed apart in the source

Kd [1] [nM]	Kd [2] [nM]	Substance
17		eEF-2K (from UniProt O00418)
	245	eEF-2K CBD peptide CBD (from UniProt O00418)
